{"source": "patent US20190218261A1", "about": "“TARGETED ENHANCED DNA DEMETHYLATION” (The Jackson Laboratory, priority 2016, published 2019)", "key": {"[1]": {"test_system": "CpGs of the hMLH1 promoter region", "test": "Bisulfite conversion and sequencing of hMLH1 promoter", "format": "cell-based, human", "conditions": "HEK293T; Casilio-ME days 3-6 post transfection; AzaC treatment for 6 days", "excerpt": "Casilio-mediated delivery of demethylation enzymes alters methylation state of targeted genomic locus. Evidence that the shown Casilio-ME-induced activation of hMLH1 transcription is a result of TET1-mediated cytosine demethylation within the targeted promoter region came from DNA sequencing of hMLH1 promoter after bisulfite conversion. Bisulfite treatment of genomic DNA deaminates unmethylated cytosines to produce uracils that are subsequently replicated as thymine. However, methylated cytosines are protected from conversion to uracils, thus allowing one to determine cytosine methylation states at single-nucleotide resolution by direct sequencing.\nTo assess changes in methylation states of CpG island within hMLH1 promoter region after Casilio-ME-mediated transcription activation, time course experiment were carried out where cells were collected 3, 4, 5, and 6 days post transfection, for analysis of cytosine methylation as well as transcription activation, and protein expression. HEK293T were transfected with Casilio-ME components that includes Ct-fusion PUFa-TET1 effector and a combination of 2 sgRNAs (RNA guides 3 and 7).\nBisulfite conversion and sequencing. Genomic DNAs were extracted using all AllPrep DNA/RNA/Protein Mini Kit according the manufacturer's instructions (Qiagen). […]"}, "[2]": {"test_system": "5′-UGUGUGUG-3′ RNA (SEQ ID NO:13)", "conditions": "cited from earlier work"}, "[3]": {"test_system": "SOX2 gene expression (SOX2 promoter) in HEK293T cells", "test": "SOX2 expression by quantitative reverse-transcription PCR after Dnmt effector targeting", "format": "cell-based", "conditions": "guides targeting SOX2 promoter, compared to direct dCas9 fusions", "procedure": "Establishment of a dCas9-expressing cell line. The day prior to transfection, Lenti-X 293T cells were seeded into 6-well plates at 1.2 million cells per well. The cells were transfected with the supercoiled packaging plasmids (pLP1 (gag/pol), pLP2 (rev), and VSV-G (envelope)) and a dCas9 lentiviral expression plasmid through Lipofectamine 3000 reagent (Invitrogen). At 6 h posttransfection, medium was exchanged for fresh. At 24 h posttransfection, 2 ml of medium containing the lentivirus were collected and centrifuged for 10 minutes at 2,000 rpm to remove cellular debris. The supernatant was filtered utilizing a […] pore filter (Millipore), and the lentivirus was frozen at −80° C. until needed. HEK293T cells, seeded into a 12-well plate at 150,000 cells per well, were transduced with 500 μl of the dCas9 lentivirus in culture medium supplemented with 5 μg/ml polybrene for 12 hours, and subsequently selected with Blasticidin antibiotics on the third day post transduction.\nTransfection. HEK293T, and HEK293T/dCas9 cell lines were seeded into 12-well plates at 150,000 cells per well. […] At 3 day post-transfection, the cells were sorted for GFP (sgRNA expression constructs are marked by GFP) with fluorescence-activated cell sorting (FACS) and re-plated into 12 or 24-well plates.\nQuantitative reverse-transcription PCR. […]"}, "[4]": {"test_system": "TetO::tdTomato transgene in HEK293T/TetO::tdTomato cell line", "test": "TetO::tdTomato transgene activation measured by FACS", "format": "cell-based", "conditions": "for transgene activation with higher PBS copy numbers: 15, 20, and 47 copies of PBS", "excerpt": "In particular, to test whether appending PBS to the 3′ end of sgRNA affects sgRNA function, a series of modified Tet-targeting (sgTetO) or non-targeting control (sgControl) sgRNA were generated, […] domain-binding sequence (PBS) for PUF (3-2) (also simply referred to as PUFa) [PBS32 or PBSa: SEQ ID NO:8 (5′-UGUAUgUA-3′)], PUF(6-2/7-2) (also simply referred to as PUFb) [PBS6272 or PBSb: SEQ ID NO:9 (5′-UugAUAUA-3′)].\nCells were transfected with dCas9-VP64 with the different sgRNA scaffolds, and were analyzed by fluorescent-activated cell sorting (FACS) two days after transfection (FIG. 1B).\nCell Culture for Experiments. HEK293T cells were cultivated in Dulbecco's modified Eagle's medium (DMEM)(Sigma) with 10% fetal bovine serum (FBS)(Lonza), 4% Glutamax (Gibco), 1% Sodium Pyruvate (Gibco) and penicillin-streptomycin (Gibco). Incubator conditions were 37° C. and 5% CO2. For activation experiments, cells were seeded into 12-well plates at 100,000 cells per well the day before being transfected with 200 ng of dCas9 construct, 100 ng of modified sgRNA and 100 ng of PUF-fusion with Attractene transfection reagent (Qiagen). After transfection, cells were grown for 48 hrs and harvested for either RNA extraction or fluorescent-activated cell sorting (FACS). For dual activation-repression experiments, transfection remained the same, however cells were seeded into 12-well plates at 150,000 cells per well and were grown for 72 hrs before being harvested for FACS. For experiments with OCT4 and SOX2 dual activation-repression, cells were triple-sorted by BFP (for the activator-repressor module PUFb-p65HSF1/BFPKRAB-PUFa), mCherry (for dCas9mCherry) and GFP (for the sgRNA-PBS on vectors co-expressing EGFP) before RNA extraction. […]\nFluorescent-Activated Cell Sorting. […] Samples were analyzed on a FACScalibur flow cytometer using CellQuest Pro software (BD Bioscience). […] were collected in each run."}}, "data": [{"molecule": "Nc1ncn([C@@H]2O[C@H](CO)[C@@H](O)[C@H]2O)c(=O)n1", "note": "[5′azacytidine, 5-Azacytidine]", "values": [{"measurement": "frequency of bisulfite conversion (cytosine demethylation) at CpGs of hMLH1 promoter", "setting": "[1]", "value": "increased bisulfite conversion frequency on multiple CpG sites within the promoter region"}]}, {"molecule": "PUF^531: PUF domain with mutations Q867E/Q939E/C935S/Q1011E/C1007S; SEQ ID NO:22 (protein) GRSRLLEDFRNNRYPNLQLREIAGHIMEFSQDQHGSRFIELKLERATPAERQLVFNEILQAAYQLMVDVFGNYVIQKFFEFGSLEQKLALAERIRGHVLSLALQMYGSRVIEKALEFIPSDQQNEMVRELDGHVLKCVKDQNGNHVVQKCIECVQPQSLQFIIDAFKGQVFALSTHPYGSRVIERILEHCLPDQTLPILEELHQHTEQLVQDQYGNYVIQHVLEHGRPEDKSKIVAEIRGNVLVLSQHKFASNVVEKCVTHASRTERAVLIDEVCTMNDGPHSALYTMMKDQYANYVVQKMIDVAEPGQRKIVMHKIRPHIATLRKYTYGKHILAKLEKYYMKNGVDLG", "values": [{"measurement": "affinity for new target RNA sequence compared to wild type PUF RNA", "setting": "[2]", "value": "very high affinity"}]}, {"molecule": "Dnmt3a-PUF: Dnmt3a catalytic region fused to N-terminus of PUFa; SEQ ID NO:65 (protein) MGPANHDQEFDPPKVYPPVPAEKRKPIRVLSLFDGIATGLLVLKDLGIQVDRYIASEVCEDSITVGMVRHQGKIMYVGDVRSVTQKHIQEWGPFDLVIGGSPCNDLSIVNPARKGLYEGTGRLFFEFYRLLHDARPKEGDDRPFFWLFENVVAMGVSDKRDISRFLESNPVMIDAKEVSAAHRARYFWGNLPGMNRPLASTVNDKLELQECLEHGRIAKFSKVRTITTRSNSIKQGKDQHFPVFMNEKEDILWCTEMERVFGFPVHYTDVSNMSRLARQRLLGRSWSVPVIRHLFAPLKEYFACVIDGGGGSDPKKKRKVDPKKKRKVDPKKKRKVGSTGSRNDGGGGSGGGGSGGGGSGRAGILPPKKKRKVSRGRSRLLEDFRNNRYPNLQLREIAGHIMEFSQDQHGSRFIQLKLERATPAERQLVFNEILQAAYQLMVDVFGNYVIQKFFEFGSLEQKLALAERIRGHVLSLALQMYGSRVIEKALEFIPSDQQNEMVRELDGHVLKCVKDQNGNHVVQKCIECVQPQSLQFIIDAFKGQVFALSTHPYGCRVIQRILEHCLPDQTLPILEELHQHTEQLVQDQYGNYVIQHVLEHGRPEDKSKIVAEIRGNVLVLSQHKFASNVVEKCVTHASRTERAVLIDEVCTMNDGPHSALYTMMKDQYANYVVQKMIDVAEPGQRKIVMHKIRPHIATLRKYTYGKHILAKLEKYYMKNGVDLGDPKKKRKVDPKKKRKVGGRGGGGSGGGGSGGGGSGPA", "values": [{"measurement": "repression of SOX2 gene expression", "setting": "[3]", "value": "more robust repression of SOX2 gene expression compared to direct fusions"}]}, {"molecule": "PUFa-VP64: NLS-PUFa-VP64 fusion; SEQ ID NO:32 (protein) MGILPPKKKRKVSRGRSRLLEDFRNNRYPNLQLREIAGHIMEFSQDQHGSRFIQLKLERATPAERQLVFNEILQAAYQLMVDVFGNYVIQKFFEFGSLEQKLALAERIRGHVLSLALQMYGSRVIEKALEFIPSDQQNEMVRELDGHVLKCVKDQNGNHVVQKCIECVQPQSLQFIIDAFKGQVFALSTHPYGCRVIQRILEHCLPDQTLPILEELHQHTEQLVQDQYGNYVIQHVLEHGRPEDKSKIVAEIRGNVLVLSQHKFASNVVEKCVTHASRTERAVLIDEVCTMNDGPHSALYTMMKDQYANYVVQKMIDVAEPGQRKIVMHKIRPHIATLRKYTYGKHILAKLEKYYMKNGVDLGGPAGSGRADALDDFDLDMLGSDALDDFDLDMLGSDALDDFDLDMLGSDALDDFDLDMLYID", "values": [{"measurement": "transgene activation with higher PBS copy numbers", "setting": "[4]", "value": "slightly lower, albeit still substantial transgene activation"}, {"measurement": "activation of TetO::tdTomato with only one PBSa", "setting": "[4]; sgRNA with one PBSa", "value": "not observed"}]}, {"molecule": "PUFb-VP64: NLS-PUFb-VP64 fusion; SEQ ID NO:33 (protein) MGILPPKKKRKVSRGRSRLLEDFRNNRYPNLQLREIAGHIMEFSQDQHGSRFIQLKLERATPAERQLVFNEILQAAYQLMVDVFGNYVIQKFFEFGSLEQKLALAERIRGHVLSLALQMYGCRVIQKALEFIPSDQQNEMVRELDGHVLKCVKDQNGNHVVQKCIECVQPQSLQFIIDAFKGQVFALSTHPYGCRVIQRILEHCLPDQTLPILEELHQHTEQLVQDQYGSYVIEHVLEHGRPEDKSKIVAEIRGNVLVLSQHKFANNVVQKCVTHASRTERAVLIDEVCTMNDGPHSALYTMMKDQYANYVVQKMIDVAEPGQRKIVMHKIRPHIATLRKYTYGKHILAKLEKYYMKNGVDLGGPAGSGRADALDDFDLDMLGSDALDDFDLDMLGSDALDDFDLDMLGSDALDDFDLDMLYID", "values": [{"measurement": "transgene activation with higher PBS copy numbers", "setting": "[4]", "value": "slightly lower, albeit still substantial transgene activation"}]}]}
